Reference: the supplement of paper PMC9170038

Test system: MS2 coat protein
Assay: apparent KD of MS2 coat protein; designed switch direction (-1 OFF switch, 1 ON switch): -1; higher = weaker reporter binding
How it was run: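 The apparent KD reported per design is the median over clusters of curve fits to normalised cluster fluorescence. The RNA switches were transcribed on Illumina chips by stalled E. coli RNA polymerase. SNAP-549-labelled MS2 coat protein was titrated from 0.7 or 1.5 nM, doubling up to 3 µM, in Tris-HCl pH 7.5 buffer containing KCl, MgCl2, BSA, DTT, tRNA and Tween-20, with no input, 200 uM small-molecule ligand, or an oligonucleotide input.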

[1] = Eterna round: R95, input ligand: FMN 200 uM
[2] = Eterna round: R95, input ligand: microRNA oligo, concentration not stated
[3] = Eterna round: R95, input ligand: none
[4] = input ligand: microRNA oligo, concentration not stated

Row | Sequence | apparent KD of MS2 coat protein (input ligand: FMN 200 uM) | apparent KD of MS2 coat protein (input ligand: none) | apparent KD of MS2 coat protein [1] | apparent KD of MS2 coat protein [2] | apparent KD of MS2 coat protein [3] | apparent KD of MS2 coat protein [4]
1 | AGGUCACAUGAGGAUCACCCAUGUGAGGAUAUAGACUCAAGAGCUUCGGCUCUCAAGUCUAGAAGGCGCUAUGA [EX1 #50] (Eterna round: R97, puzzle: Exclusion 1) | 26.5 nM | 28.5 nM | – | – | – | –
2 | CUGGUCCGAGGAUAUAUUAUGUGAUACAUGAGGAUCACCCAUGUUAUAUGAUGGAUGUUAAUAGAAGGCGGACUAG [JL-ex5-3.20] (puzzle: Exclusion 5) | – | – | 109 nM | 109 nM | 184 nM | –
3 | AUCGUGAAGAAGGAUAUGGGCCCGGUAAUACGACUAGAAGGUCUGACAUGAGGAUCACCCAUGUGAUACCAAAA [Arorquis] (puzzle: Exclusion 6) | – | – | 32.2 nM | 33.3 nM | 32.5 nM | –
4 | AAAACACAUGAGGAUCACCCAUGUGAGGAUAUGUCCAUGCUCGGCAAACCGGGCAUGGACAGAAGGCACAUAAA [JR_Exclusion1_Sub015] (puzzle: Exclusion 1) | – | – | – | 40.3 nM | – | –
5 | UAAUUGUGAGGAUAUCUGGCUUCGAUCGUGAGAUCGAGGCUAGAGAAGGCACAUGAGGAUCACCCAUGUUCCUU [jl-ex4-4.10 salish99 mod] (Eterna round: R97, puzzle: Exclusion 4) | 85.2 nM | 21.5 nM | – | – | – | –
6 | CCACAUGCAGGAUAUGUAAAAUUUGACAUGAGGAUCACCCAUGUAGAUCCUGAAUUUCCUGCAGAAGGGCAUGUGG [Mat - Exclusion 5 - Eli Mod - D19] (Eterna round: R97, puzzle: Exclusion 5) | 605 nM | 149 nM | – | – | – | –
7 | ACCUUACUGGUCAGGAUAUACAGUCUUUGGUGUGUGUAGAAGGGACAUGAGGAUCACCCAUGUAGGUUGCUUUA [alecazam62] (Eterna round: R97, puzzle: Brourd's mod of Exclusion 4) | 220 nM | 141 nM | – | – | – | –
8 | GUCAGCUCGUCAGGAUAUAUAUUAACAUGAGGAUCACCCAUGUAAGAUCAGCUUCGGCAGUUAAUAUAGAAGGGACGAGCUGAC [ENG2/14-B1] (Eterna round: R96, puzzle: Exclusion NG 2) | 181 nM | 153 nM | – | – | – | 154 nM
9 | UCAUAACAUGAGGAUCACCCAUGUGAGGAUAUGAUACUAUGUACUUCGGUACAUAGUAUCAGAAGGCACAUGCU [Brourd's Ex1-3: 11 (nt 72 G)] (puzzle: Exclusion 1) | – | – | 34.8 nM | 127 nM | 127 nM | –
10 | AGAUGCUCAAGUCGACAUGAGGAUCACCCAUGUACAGUAAACGAGGAUAUCCGAGAUAAAUAAUAGGAGAAGGCGUGAUCAUGA [Mat - Exclusion NG 3 - Mod of JL - D55] (Eterna round: R96, puzzle: Exclusion NG 3) | 337 nM | 86.3 nM | – | – | – | 66 nM
11 | AACCUACAUGAGGAUCACCCAUGUGAGGAUAUAUUGUUAUUUAUAUUAUUUUUUAGAGGUAGAAGGCGCGUGAU [JR_Exc1_Sub020] (Eterna round: R97, puzzle: Exclusion 1) | 15.9 nM | 17.3 nM | – | – | – | –
12 | GGCCCGGGAGGAUAUACAUGAGGAUCACCCAUGUAGCCCGGCCCGAUCGGGCCGGGCUGUAGAAGGCCCGGGCC [-49.2, -46.3 kcal, 19% A] (Eterna round: R97, puzzle: Exclusion 3) | 16.9 nM | 13 nM | – | – | – | –
13 | ACAUGAGGAUCACCCAUGUACAGGGUUUAGUUUCAUCGUUUGAAGGAUAUACUCCGUUAGUUGUCGUAGAAGGUCACAUUUUGG [JR_ExcNG3_Sub006] (Eterna round: R96, puzzle: Exclusion NG 3) | 189 nM | 145 nM | – | – | – | 120 nM
14 | AGGGAUAAAGGAUAUACAUGAGGAUCACCCAUGUUGAGGAAGGUUAGAUGAGGAGUAAGUAGAAGGUUAGACGA [JR_Exclu3_Sub088] (puzzle: Exclusion 3) | – | – | 45.7 nM | 40.7 nM | 61.3 nM | –
15 | GGUGGACAUGAGGAUCACCCAUGUGAGGAUAUCGGCCGGUUCGUGGUGGCUGGCGUCUCGAGAAGGCGCAUAGU [Exclusion 1 V70] (puzzle: Exclusion 1) | – | – | – | 28.6 nM | – | –
16 | UAUAAGAUAGGAUAUACAGGCCCGUCUUCAUAUCGAUCCCGACAUGAGGAUCACCCAUGUAGAAGGAUCGUAUA [Mod 22 - Jieux - Exclusion 2] (Eterna round: R97, puzzle: Exclusion 2) | 15 nM | 8.25 nM | – | – | – | –
17 | CAUGAUCUUCGGAUCAUGUACAUGAGGAUCACCCAUGUGACGAGUUUAUGGGUGAACAAGCUUUUUGCUCGUCUUAU [Sensor v3 - Turn-off variant 1 - 6] (puzzle: Sensor v3, turn-off variant 1) | – | – | 60 nM | 11.2 nM | 68.9 nM | –
18 | AGCUGUGGCCGAGGAUAUCACAUGAGGAUCACCCAUGUAUAUGAUUAGGCCUGGUAACAGGCUCGUGAGAAGGCGGUCUCAGCA [Eli eng2 - 012] (Eterna round: R96, puzzle: Exclusion NG 2) | 28.4 nM | 31.3 nM | – | – | – | 19.5 nM
19 | GGAUCGAAUGUGAGGAUAUGCUGGUCCUUGGAUCAGCAGAAGGCACAUGAGGAUCACCCAUGUGAUAUCGAUCC [Eli bmx4 4.71] (Eterna round: R97, puzzle: Brourd's mod of Exclusion 4) | 443 nM | 89.2 nM | – | – | – | –
20 | AAAAUGUCAGGAUAUACGAAACAAAACAAAACAAAACAAAAGUAGAAGGGACAUGAGGAUCACCCAUGUAAGAA [Exclusion 4 #2] (puzzle: Exclusion 4) | – | – | 49.6 nM | 24.1 nM | 32.5 nM | –
21 | UAUAUAUAGUAAGGAUAUGUAAUUAUUUUAUCAACAGAAGGUACUGACAUGAGGAUCACCCAUGUUUUAGUGUGGGCAUGUAGA [JMF's solution 49] (Eterna round: R96, puzzle: Exclusion NG 1) | – | – | – | – | – | 61.7 nM
22 | UCCUCACAUGAGGAUCACCCAUGUGAGGAUAUCAUGCUUCGUAGUAAACUACGAAGUGUGAGAAGGCACAUGGC [Omei Ex1 D15] (Eterna round: R97, puzzle: Exclusion 1) | 23.9 nM | 19.6 nM | – | – | – | –
23 | UGUACUAUGCGAGCUGACUUGCGUAGUGCAGCAGGUGGAACAUGAGGAUCACCCAUGUCCUCAUUUGCUCGUCUUAU [SL-sv3-2.03 JL mod] (puzzle: Sensor v3, turn-off variant 2) | – | – | 39 nM | 143 nM | 41.2 nM | –
24 | GUAAACGAAGAGGAUAUUUGAUAUCAAAGCUUCAAAGAAGGCUUCACAUGAGGAUCACCCAUGUGAUCUUCAAG [Mat - Exclusion 6 - JL Mod - D17] (Eterna round: R97, puzzle: Exclusion 6) | 404 nM | 28.4 nM | – | – | – | –
25 | GCACGGAUCGUAGGAUAUCAUUGCGAUUAGCUAUGAGAAGGACGACAUGAGGAUCACCCAUGUCCUCUAAUUAGCCUUCCGUGC [Eli exng1 - 017] (Eterna round: R96, puzzle: Exclusion NG 1) | 52.9 nM | 38.5 nM | – | – | – | 21.8 nM
